# Data reported in the supplement of paper PMC6757056.
# ± gives the standard deviation of the averaged measurements.
# B1: library; a variant is named by its letters at N, in order (parent)
# chain: GCUGUCACCGGUGCUUGGUACGUUAUAUUCAGCCGGUCUGAUGAGUCUNNNNNNAGACGAAACAGC
# How the values were obtained:
# (6R,S)-folinic acid [1] = variants of: B1; experiment: FACS-Seq fitted mean relative fluorescence mCherry/BFP without ligand (log10 relative fluorescence); HEK293T overexpressing SLC46A1; higher = higher reporter protein expression; details: without (6R,S)-folinic acid; ligand present: no
# Procedure: (§1)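 Hammerhead (sTRSV) ribozyme switch libraries with a ligand aptamer grafted on stem I and a randomized N4-6 loop II, cloned into the 3' UTR of mCherry and transiently transfected into HEK293T cells; RNA-Seq 72 h post transfection with ligand added 1 h before transfection; RNA read count / plasmid DNA read count normalized to the non-cleaving sTRSVctl (x100), log10; sequences with >100 DNA reads. FACS-Seq: lentiviral library sorted into 6 bins after 48 h ligand, log-normal fit mean of mCherry/BFP scaled to controls. Printed sequences are partial switch sequences.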
# (6R,S)-folinic acid [2] = variants of: B1; experiment: normalized RNA/DNA level without ligand (relative to sTRSVctl = 100) (log10 (% of sTRSVctl)); HEK293T overexpressing SLC46A1; higher = less ribozyme self-cleavage, higher mRNA level; details: without (6R,S)-folinic acid; ligand present: no
# Procedure: as §1
# (6R,S)-folinic acid [3] = variants of: B1; experiment: FACS-Seq fitted mean relative fluorescence mCherry/BFP with ligand (log10 relative fluorescence); HEK293T overexpressing SLC46A1; ligand concentration (+) FACS-Seq: 6 mM; higher = higher reporter protein expression; details: with (6R,S)-folinic acid; ligand present: yes
# Procedure: as §1
# (6R,S)-folinic acid [4] = variants of: B1; experiment: normalized RNA/DNA level with ligand (relative to sTRSVctl = 100) (log10 (% of sTRSVctl)); HEK293T overexpressing SLC46A1; ligand concentration (+) RNA-Seq: 6 mM; higher = less ribozyme self-cleavage, higher mRNA level; details: with (6R,S)-folinic acid; ligand present: yes
# Procedure: as §1
Variant,"FACS-Seq fitted mean (log10) ((6R,S)-folinic acid [1])","normalized RNA/DNA level without ligand (log10) ((6R,S)-folinic acid [2])","FACS-Seq fitted mean (log10) ((6R,S)-folinic acid [3])","normalized RNA/DNA level with ligand (log10) ((6R,S)-folinic acid [4])"
UAAAUG,0.33 ± 0.034,1.7477 ± 0.001,0.685 ± 0.3,1.95 ± 0.039
AAAAGG,0.512 ± 0.12,1.875 ± 0.005,0.459 ± 0.17,1.98 ± 0.038
AAAAGC,0.477 ± 0.09,1.999 ± 0.011,0.358 ± 0.1,2.03 ± 0.042
UAAGGA,0.0731 ± 0.084,1.85 ± 0.026,0.217 ± 0.0071,1.997 ± 0.018
UAAGGG,-0.0665 ± 0.0016,1.601 ± 0.002,0.263 ± 0.16,1.92 ± 0.025
GAAAGA,0.353 ± 0.015,2.011 ± 0.011,0.607 ± 0.25,2.04 ± 0.024
GAAAGG,0.138 ± 0.034,1.902 ± 0.0036,0.0807 ± 0.19,2 ± 0.021
AAAAUA,0.397 ± 0.014,1.9645 ± 0.00067,0.47 ± 0.066,2 ± 0.025
AAAAUU,0.432 ± 0.056,2.0158 ± 0.0011,0.29 ± 0.039,2.02 ± 0.031
GAACAG,0.808 ± 0.1,1.959 ± 0.0099,0.638 ± 0.1,2.01 ± 0.03
GAACAA,0.694 ± 0.2,1.976 ± 0.013,0.571 ± 0.25,2 ± 0.033
CAAGAG,0.355 ± 0.047,1.903 ± 0.013,0.365 ± 0.14,1.98 ± 0.024
CAAGAA,0.425 ± 0.21,1.95 ± 0.0095,0.427 ± 0.2,2 ± 0.024
AAAGAU,0.433 ± 0.025,1.9288 ± 0.0013,0.44 ± 0.027,2 ± 0.032
AAAGAC,0.42 ± 0.029,1.98 ± 0.0069,0.38 ± 0.23,2.01 ± 0.028
AAAGAG,0.224 ± 0.031,1.617 ± 0.0032,0.316 ± 0.22,1.93 ± 0.049
AAAGAA,0.282 ± 0.14,1.923 ± 0.011,0.569 ± 0.098,1.99 ± 0.037
GAAGGC,0.492 ± 0.035,1.951 ± 0.006,0.635 ± 0.019,2.009 ± 0.0033

Variant,"FACS-Seq fitted mean (log10) ((6R,S)-folinic acid [1])","normalized RNA/DNA level without ligand (log10) ((6R,S)-folinic acid [2])","FACS-Seq fitted mean (log10) ((6R,S)-folinic acid [3])","normalized RNA/DNA level with ligand (log10) ((6R,S)-folinic acid [4])"
GAAACU,0.175 ± 0.071,2.004 ± 0.0055,0.437 ± 0.016,2.001 ± 0.019
UAACAA,0.381 ± 0.053,1.95 ± 0.02,0.18 ± 0.0065,2 ± 0.037
UAACAG,0.325 ± 0.2,1.829 ± 0.015,0.463 ± 0.16,1.952 ± 0.017
UAACAC,0.349 ± 0.11,2.008 ± 0.0029,0.223 ± 0.22,2.01 ± 0.046
UAAUAU,0.201 ± 0.005,1.922 ± 0.0069,0.297 ± 0.077,1.99 ± 0.026
UAAUAG,0.255 ± 0.04,1.75 ± 0.028,0.58 ± 0.11,1.96 ± 0.057
CAAUGA,0.153 ± 0.14,1.998 ± 0.0058,0.267 ± 0.16,2.02 ± 0.049
UAAGUC,0.228 ± 0.093,2.0619 ± 0.00099,0.173 ± 0.12,2.038 ± 0.0091
UAAGUU,0.118 ± 0.029,1.952 ± 0.0089,0.124 ± 0.17,2.01 ± 0.041
UAAGUG,0.502 ± 0.074,1.6686 ± 0.0006,0.881 ± 0.18,1.93 ± 0.055
AAACGA,0.186 ± 0.039,2 ± 0.018,0.192 ± 0.16,2.03 ± 0.026
AAACGU,0.248 ± 0.096,1.966 ± 0.011,0.326 ± 0.22,2 ± 0.024
AAACGG,0.359 ± 0.076,1.903 ± 0.013,0.384 ± 0.1,2.006 ± 0.016
GAAUCG,0.149 ± 0.053,1.966 ± 0.0024,0.372 ± 0.14,2 ± 0.022
GAAUCA,0.429 ± 0.13,2.017 ± 0.005,0.409 ± 0.051,2.01 ± 0.03
UAACUG,0.401 ± 0.0068,1.846 ± 0.015,0.499 ± 0.1,2 ± 0.024
UAACUA,0.248 ± 0.065,1.98 ± 0.027,0.41 ± 0.11,2.03 ± 0.028
